The record followed here is paper PMC5871715 (2018).

Sequences and labels used below:
B1: full-length human Draxin AVEXIS prey, wild type [human] / human Netrin-1 WT bait protein (VI+V), AVEXIS [human] (parent complex)
chain 1: GALAPGTPARNLPENHIDLPGPALWTPQASHHRRRGPGKKEWGPGLPSQAQDGAVVTATRQASRLPEAEGLLPEQSPAGLLQDKDLLLGLALPYPEKENRPPGWERTRKRSREHKRRRDRLRLHQGRALVRGPSSLMKKAELSEAQVLDAAMEESSTSLAPTMFFLTTFEAAPATEESLILPVTSLRPQQAQPRSDGEVMPTLDMALFDWTDYEDLKPDGWPSAKKKEKHRGKLSSDGNETSPAEGEPCDHHQDCLPGTCCDLREHLCTPHNRGLNNKCFDDCMCVEGLRCYAKFHRNRRVTRRKGRCVEPETANGDQGSFINV
chain 2: not shown

Variants of B1 are the subject of the assay. The experiment in a line: AVEXIS; average of three repeats; read off a plot.
With chain 1 F208A, the response was roughly 0.055 A486 nm.
Consider chain 1 F208P, for which the response was roughly 0.037 A486 nm.
Turning to chain 1 F208R, the response is roughly 0.021 A486 nm.
To chain 1 L203R belongs roughly 0.004 A486 nm; to chain 1 L203A, roughly 0.004 A486 nm.
On to chain 1 L203P, for which the response was roughly 0.005 A486 nm.
